For the assay, the target named is BphP1-iB(GFP) (Rhodopseudomonas palustris | not stated). The experiment in a line: light-induced relocalisation in live cells (epifluorescence microscopy); HeLa co-expressing BphP1-iB(GFP), mVenus-CAAX and mCherry-QPAS1; darkness against 740 nm light (1 mW cm^-2), 37 °C; mCherry signal moves from cytoplasm to plasma membrane.

This is an account of results in article PMC6992714.

mCherry-QPAS1 returned a half-time of the relocalisation from cytoplasm to plasma membrane of 33.6 s.
